What was measured:
[1] = test system: RET; details: cited from earlier work; for RET autophosphorylation: Tokugawa et al. 2003 (XIB4035, GDNF), Akeno-Stuart et al. 2007 (AST 487)
[2] = test system: neurosphere-derived glial cells; assay: Activation of neurosphere-derived glial cells, alone or co-cultured with ILC3; format: cell-based, mice; details: for innate Il22 in ILC3 co-cultured with glial cells: 24 hours of co-culture, MYD88 dependent; for GFL expression in glial cells: activation of neurosphere-derived glial cells
Method: Neurosphere-derived glial cells were obtained as previously described^60. Briefly, total intestines from E14.5 C57BL/6J and Myd88^−/− mice were digested with collagenase D (0.5 mg/mL; Roche) and DNase I (0.1 mg/mL; Roche) in DMEM/F-12, GlutaMAX, supplemented with 1% hepes, streptomycin/penicillin and 0.1% β-mercaptoethanol (Gibco) for approximately 30 minutes at 37° C. under gentle agitation. Cells were cultured during 1 week in a CO2 incubator at 37° C. in DMEM/F-12, GlutaMAX™, streptomycin and penicillin and 0.1% P3-mercaptoethanol (Gibco) supplemented with B27 (Gibco), EGF (Gibco) and FGF2 (Gibco) 20 ng/mL. After 1 week of culture cells were treated with 0.05% trypsin (Gibco), transferred into PDL (Sigma-Aldrich) coated plates and culture in DMEM supplemented with 10% FBS, 1% hepes, glutamine, streptomycin and penicillin and 0.1% β-mercaptoethanol (Gibco) until confluence. Glial cells were activated with TLR2 (5 μg/ml) (Pam3CSK4), TLR3 ([…]) (PolyI:C), TLR4 (50 ng/ml) (LPS), TLR9 ([…]) (DsDNA-EC) ligands from Invivogen and IL-1β (10 ng/mL) (401ML005), IL-18 (50 ng/mL) (B002-5), IL-33 (0.1 ng/mL) (3626ML) recombinant proteins from R&D Systems. Cells were also co-cultured with purified ILC3 from WT and Illb deficient mice. IL-22 expression in glial-ILC3 co-cultures upon TLR4 activation was also performed using GDNF ([…]) (AB-212-NA), NRTN ([…]) (AF-387sp) and ARTN (0.3 μg/mL) (AF-1085-sp) blocking antibodies. Cells were analysed after 24 hours of co-culture.

| Molecule | activation of downstream effectors of RET ([1]; Akeno-Stuart et al. 2007) | RET autophosphorylation [1] | innate Il22 in ILC3 co-cultured with glial cells [2] | GFL expression in glial cells [2] |
| --- | --- | --- | --- | --- |
| CCN1CCN(Cc2ccc(NC(=O)Nc3ccc(Oc4cc(NC)ncn4)cc3)cc2C(F)(F)F)CC1 [AST 487, 1-[4-[(4-ethylpiperazin-1-yl)methyl]-3-(trifluoromethyl)phenyl]-3-[4-[6-(methylamino)pyrimidin-4-yl]oxyphenyl]urea] | inhibit | inhibit | – | – |
| CCN(CC)CCCC(C)Nc1cc(/C=C/c2ccccc2Cl)nc2cc(Cl)ccc12 (centres unmarked) [XIB4035, N(4)-(7-chloro-2-[(E)-2-(2-chloro-phenyl)-vinyl]-quinolin-4-yl)-N(1),N(1)-diethyl-pentane-1,4-diamine] | – | induced | – | – |
| IL-33: recombinant protein from R&D Systems (3626ML), alarmin (protein, UniProt Q8BVZ5 1-266, looked up) Interleukin-33: MRPRMKYSNSKISPAKFSSTAGEALVPPCKIRRSQQKTKEFCHVYCMRLRSGLTIRKETSYFRKEPTKRYSLKSGTKHEENFSAYPRDSRKRSLLGSIQAFAASVDTLSIQGTSLLTQSPASLSTYNDQSVSFVLENGCYVINVDDSGKDQEQDQVLLRYYESPCPASQSGDGVDGKKLMVNMSPIKDTDIWLHANDKDYSVELQRGDVSPPEQAFFVLHKKSSDFVSFECKNLPGTYIGVKDNQLALVEEKDESCNNIMFKLSKI | – | – | induced robust | efficiently controlled |
| IL-1β: recombinant protein from R&D Systems (401ML005), alarmin (protein, UniProt P10749 118-269, looked up) Interleukin-1 beta: VPIRQLHYRLRDEQQKSLVLSDPYELKALHLNGQNINQQVIFSMSFVQGEPSNDKIPVALGLKGKNLYLSCVMKDGTPTLQLESVDPKQYPKKKMEKRFVFNKIEVKSKVEFESAEFPNWYISTSQAEHKPVFLGNNSGQDIIDFTMESVSS | – | – | induced robust | efficiently controlled |
| GDNF: Glial cell-derived neurotrophic factor, a GFRα1 ligand (protein, UniProt P39905 78-211, looked up) Glial cell line-derived …: SPDKQMAVLPRRERNRQAAAANPENSRGKGRRGQRGKNRGCVLTAIHLNVTDLGLGYETKEELIFRYCSGSCDAAETTYDKILKNLSRNRRLVSDKVGQACCRPIAFDDDLSFLDDNLVYHILRKHSAKRCGCI | – | induced | – | – |

— patent US20190142868A1, “METHODS OF TREATING DISEASES ASSOCIATED WITH ILC3 CELLS” (Instituto de Medicina Moleccular, priority 2016, published 2019)
